Biological target: T1, human NOTCH3 extracellular domain (human, UniProt Q9UM47 40-1643)
T1 construct: In the tissue IHC the target is endogenous NOTCH3 in tumor sections; also called NOTCH3 ECD
Assay: screening by FACS, Western blot and IHC on FFPE pellets of HEK-293 cells transiently transfected with NOTCH ECD constructs
Text: Screening was first done by FACS, followed by Western blot analyses and then in IHC assays using HEK-293 cells transiently transfected with NOTCH1, NOTCH2, NOTCH3, or NOTCH4 ECD constructs. Starting with 68 supernatants from hybridoma cells, seven candidate antibodies were selected for further testing and optimization in IHC assays, 122M23, 122M25, 122M26, 122M27, 122M35, 122M36, and 122M40. […] The desired antibody needed to be specific for NOTCH3 ECD, so the staining had to be predominantly membrane localized, with minimal or no detectable background non-specific staining in transiently transfected cell pellets in FFPE format. In addition, the antibody had to give appropriate results on positive and negative control tissues.

T1 sequence (Q9UM47 40-1643 limits assumed): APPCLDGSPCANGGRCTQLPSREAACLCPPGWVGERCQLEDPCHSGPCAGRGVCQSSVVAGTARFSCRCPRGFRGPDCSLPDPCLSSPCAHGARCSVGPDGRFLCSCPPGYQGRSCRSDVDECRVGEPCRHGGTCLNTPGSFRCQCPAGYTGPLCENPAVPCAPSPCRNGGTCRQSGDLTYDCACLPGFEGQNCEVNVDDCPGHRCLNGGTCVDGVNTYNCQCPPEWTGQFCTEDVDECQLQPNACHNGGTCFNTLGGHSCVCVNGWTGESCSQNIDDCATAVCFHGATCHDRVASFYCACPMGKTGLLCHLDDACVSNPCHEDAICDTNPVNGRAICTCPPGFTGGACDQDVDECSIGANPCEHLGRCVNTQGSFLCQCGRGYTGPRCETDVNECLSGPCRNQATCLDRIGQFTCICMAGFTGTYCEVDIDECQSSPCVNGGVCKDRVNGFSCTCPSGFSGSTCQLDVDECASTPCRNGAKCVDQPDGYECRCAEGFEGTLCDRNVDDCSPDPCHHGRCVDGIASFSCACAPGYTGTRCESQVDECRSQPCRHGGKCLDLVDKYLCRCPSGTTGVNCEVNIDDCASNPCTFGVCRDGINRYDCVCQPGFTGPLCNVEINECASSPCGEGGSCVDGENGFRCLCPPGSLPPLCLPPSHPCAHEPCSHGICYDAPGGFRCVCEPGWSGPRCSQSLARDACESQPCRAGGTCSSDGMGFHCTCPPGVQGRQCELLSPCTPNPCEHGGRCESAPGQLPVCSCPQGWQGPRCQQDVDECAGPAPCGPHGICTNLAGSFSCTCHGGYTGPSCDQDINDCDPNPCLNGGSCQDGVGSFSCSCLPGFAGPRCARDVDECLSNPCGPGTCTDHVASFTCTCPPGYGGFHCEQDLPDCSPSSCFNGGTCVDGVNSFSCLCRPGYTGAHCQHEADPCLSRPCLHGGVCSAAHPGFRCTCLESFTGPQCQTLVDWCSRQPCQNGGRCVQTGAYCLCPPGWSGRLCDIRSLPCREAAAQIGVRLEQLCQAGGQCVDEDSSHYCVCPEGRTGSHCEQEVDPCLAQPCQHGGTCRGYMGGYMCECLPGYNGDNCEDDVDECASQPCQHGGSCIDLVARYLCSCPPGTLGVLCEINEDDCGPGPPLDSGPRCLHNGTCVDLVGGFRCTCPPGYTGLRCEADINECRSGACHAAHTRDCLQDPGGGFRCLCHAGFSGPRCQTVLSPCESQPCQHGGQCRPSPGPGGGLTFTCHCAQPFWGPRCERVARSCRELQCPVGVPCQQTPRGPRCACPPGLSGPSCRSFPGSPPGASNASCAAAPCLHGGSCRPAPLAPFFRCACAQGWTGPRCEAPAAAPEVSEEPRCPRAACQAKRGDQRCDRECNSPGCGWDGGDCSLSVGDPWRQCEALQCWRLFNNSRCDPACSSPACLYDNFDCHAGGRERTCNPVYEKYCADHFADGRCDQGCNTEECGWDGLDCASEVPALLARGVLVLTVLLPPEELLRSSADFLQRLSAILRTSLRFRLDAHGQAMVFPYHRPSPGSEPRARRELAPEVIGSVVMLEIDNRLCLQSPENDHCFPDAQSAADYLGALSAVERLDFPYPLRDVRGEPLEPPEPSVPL

B1: anti-NOTCH3 antibody 122M23 (antibody, V domains shown)
VH: QVQLQQSGAELARPGASVKMSCKASGYTFTKYTIHWVAQKPGQGLEWIGYINPSNDYTNYNQTFKDKATLTADKSSTTAYMQLISLTSADSTVFYCARGTTPYSLDYWGQGTSVTVSS
VL: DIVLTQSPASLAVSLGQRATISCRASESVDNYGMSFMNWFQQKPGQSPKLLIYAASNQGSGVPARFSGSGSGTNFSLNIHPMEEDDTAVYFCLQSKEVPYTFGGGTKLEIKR
notes: Murine monoclonal antibody from a hybridoma (ATCC PTA-121154); also called murine monoclonal antibody 122M23
Does B1 bind?
Result: binds

Source: patent US20170023576A1 (ONCOMED PHARMACEUTICALS, published 2017)
